Assay results taken from article PMC8510090, “The DNA Recognition Motif of GapR Has an Intrinsic DNA Binding Preference towards AT-rich DNA” (Molecules, 2021).

Legend:
[1] = target: the molecule itself; test: crystal structure; hanging drop vapor diffusion at room temperature; protein 10 mg/mL in 50 mM HEPES pH 7.0, 300 mM NaCl; 0.1 M sodium cacodylate pH 6.0, 15% PEG4000; 2.08 angstrom
GapRΔC17 [2] = target: T1, GapRΔC17 (Caulobacter crescentus, UniProt B8H4R9 1-72); test: MST; MST: 20 mM PBS, 150 mM NaCl, 0.02% n-dodecyl-β-D-maltoside, pH 7, 20 nM labeled dimer (labeling at room temperature); NMR netropsin competition: 50 mM sodium phosphate, 150 mM NaCl, pH 7.0, 90% H2O/5% D2O (so in the source); details: protein: recombinant, tags: C-terminal His6, chain copies: 2
T1 sequence: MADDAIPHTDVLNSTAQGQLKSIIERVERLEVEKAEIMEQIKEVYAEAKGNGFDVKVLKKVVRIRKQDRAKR

GapRΔC17 [3] = target: T1, GapRΔC17; test: NMR titration (1H-15N HSQC); MST: 20 mM PBS, 150 mM NaCl, 0.02% n-dodecyl-β-D-maltoside, pH 7, 20 nM labeled dimer (labeling at room temperature); NMR netropsin competition: 50 mM sodium phosphate, 150 mM NaCl, pH 7.0, 90% H2O/5% D2O (so in the source); details: protein: recombinant; tags: C-terminal His6; chain copies: 2

B1: GapR^ΔC17 (DNA binding domain of GapR, residues 1–72) (domain or fragment, Caulobacter crescentus, UniProt B8H4R9 1-72, looked up)
chain: MADDAIPHTDVLNSTAQGQLKSIIERVERLEVEKAEIMEQIKEVYAEAKGNGFDVKVLKKVVRIRKQDRAKR
notes: GapR, nucleoid-associated protein of Caulobacter crescentus, gene gapr (CCNA_03428), residues 1-72 (the C-terminal 17 residues, most of helix α3, deleted); 8.2 kDa; Cloned into the NdeI and XhoI sites of pET-21a(+) and followed by a C-terminal His6-tag; A selenomethionyl derivative was used for phasing; also called DNA recognition motif of GapR; dimer unit of GapR; source: E. coli Rosetta (DE3), …
binding result [1]: binds

B2: 6CG DNA (dsDNA)
DNA 1: CGCGCGCGCGCG
DNA 2: CGCGCGCGCGCG
Kd (GapRΔC17 [2]): 18 ± 2 µM

B3: 6A DNA (dsDNA)
DNA 1: CGCAAAAAAGCG
DNA 2: CGCTTTTTTGCG
Kd (GapRΔC17 [2]; blunt): 1.1 ± 0.1 µM

B4: 3AT DNA (dsDNA)
DNA 1: CGCATATATGCG
DNA 2: CGCATATATGCG
binding result (GapRΔC17 [3]): binds
